Source: US20250003978A1, “DIAGNOSIS AND TREATMENT OF ANTI-PF4 INDUCED THROMBOCYTOPENIA” (The Regents of the University of California, priority 2021, published 2025)
Each block holds one molecule with its values, some of them ahead of it. Positions of bridges follow the written chain, without caps; N, C: chain ends. Non-standard residues stand in square brackets, D forms with d. Residues, ends and D or L forms follow the SMILES beside them. hArg = N=C(N)NCCCC[C@H](N)C(=O)O; Mpa = O=C(O)CCS

What was measured:
soluble integrin αvβ3 [1] = biological target: T1, soluble integrin αvβ3 (Homo sapiens, UniProt P05106+P06756); experiment: ELISA-type integrin binding assay, soluble αvβ3; settings: competitor 100 μg/ml; immobilized PF4 (12.5 g/ml); 1 mM Mn2+
T1 construct: Soluble recombinant αIIbβ3 or αvβ3 (AgroBio, 1 μg/ml); purchased AgroBio
Procedure: (§1) FIG. 2. PF4 specifically binds to soluble αIIbβ3 and αvβ3 in ELISA-type binding assays in 1 mM Mn^2+. FIG. 2a PF4 binds to soluble integrins in 1 mM Mn^2+ in ELISA-type binding assays. PF4 was immobilized to wells of 96-well microtiter plate and incubated with soluble αIIbβ3 or αvβ3 (1 μg/ml) in Tyrode-HEPES buffer with 1 mM Mn^2+ (to activate integrins) for 1 hr at room temperature and bound integrins were quantified using anti-β3 (mAb AV10) and HRP-conjugated anti-mouse IgG. Data are shown as means+/−SD in triplicate experiments. […] FIG. 2b Binding of authentic PF4 (Invitrogen) to integrins. Binding assays were performed as described in (a). PF4 (6.25 μg/ml) was used. Data are shown as means+/−SD in triplicate experiments. […] FIGS. 2c and d The binding of PF4 to integrins was suppressed by the distintegrin domain of ADAM15 fused to GST (ADAM15 disintegrin), but not by control GST. To establish the specificity of PF4 binding to soluble integrins αIIbβ3 (b) and αvβ3 (c), if ADAM15 disintegrin, which is known to bind to integrins αIIbβ3 (22) and αvβ3 (21), suppress the binding. […] Data are shown as means+/−SD in triplicate experiments. […] Bound integrins were quantified as described in (a). […]
(§2) Wells of 96-well microtiter plates were coated with PF4. […] Bound αIIbβ3 or αvβ3 was measured using anti-integrin β3 mAb (AV-10) followed by HRP-conjugated goat anti-mouse IgG and peroxidase substrates.

soluble integrin αIIbβ3 [2] = biological target: T2, soluble integrin αIIbβ3 (Homo sapiens, UniProt P05106+P08514); experiment: ELISA-type integrin binding assay, soluble αIIbβ3; settings: 1 mM Mn2+
T2 construct: Soluble recombinant αIIbβ3 or αvβ3 (AgroBio, 1 μg/ml); purchased AgroBio
Procedure: as §1, §2

[3] = biological target: T3, soluble recombinant integrin αIIbβ3 (UniProt P08514 32-993; P05106 27-718); experiment: ELISA-type binding: immobilized PF4, soluble αIIbβ3 1 µg/ml, 1 mM Mn2+, detection with anti-β3 mAb AV10
T3 construct: Bought soluble heterodimer, used at 1 µg/ml; also called soluble αIIbβ3
Procedure: (§4) Data are shown as means+/−SD in triplicate experiments. […] Binding assays were performed as described in (a). […] Data are shown as means+/−SD in triplicate experiments. […] Data are shown as means+/−SD in triplicate experiments. […] Assays were performed as described in (a). Data is shown as means+/−SD in triplicate experiments. […] Wells were incubated with soluble integrins (1 μg/ml) in Tyrode-HEPES buffer with different cations (1 mM). Bound integrins were quantified as described in (a). Data are shown as means+/−SD in triplicate experiments.

[4] = biological target: T4, soluble recombinant integrin αvβ3 (UniProt P06756 31-992; P05106 27-718); experiment: ELISA-type binding: immobilized PF4, soluble αvβ3 1 µg/ml, 1 mM Mn2+, detection with anti-β3 mAb AV10
T4 construct: Bought soluble heterodimer, used at 1 µg/ml; also called soluble αvβ3
Procedure: as §4

soluble integrin αvβ3 [5] = biological target: T1, soluble integrin αvβ3; experiment: ELISA-type integrin activation assay, soluble αvβ3 binding to immobilized γC399tr; assay type: biochemical; settings: for ability of PF4 mutant to mediate RTO/PF4-induced αvβ3 activation: PF4 mutant in complex with anti-PF4 RTO, 1 mM Ca2+
Procedure: FIG. 4. […] FIG. 4a. Anti-PF4 (RTO) markedly enhances PF4-induced activation of soluble αvβ3 in 1 mM Ca^2+ in ELISA-type activation assays. Fibrinogen fragment γC399tr (151-399 segment of fibrinogen γ chain, a specific ligand for αvβ3) was immobilized to wells of 96-well microtiter plate. […] Anti-PF4 (RTO or KKO, 10 μg/ml) were added (without heparin). After washing, bound integrins were quantified using anti-β3 (mAb AV10) and HRP-conjugated anti-mouse IgG. Mouse IgG (10 μg/ml) and no antibody were used as negative controls. […] FIG. 4b. […] Commercial PF4 was used instead of our own PF4 preparation. Activation assays were performed as described in a. […] FIG. 4c. Point mutations in the predicted integrin-binding site (site 2) of PF4 suppressed activation of αvβ3 by the anti-PF4/PF4 complex. […] FIG. 4d. The R20E/R22E/K46E/R49E mutant suppressed integrin activation by the RTO/PF4 complex. WT PF4 (0.5 μg/ml) and excess PF4 mutant (5 or 10 μg/ml) were used.
(§3) Wells of 96-well microtiter plates were coated with γC390-411 (a specific ligand for αIIbβ3) or γC399tr (a specific ligand for αvβ3). Remaining protein binding sites were blocked with BSA. Soluble recombinant αIIbβ3 or αvβ3 (AgroBio, 1 μg/ml) was pre-incubated with chemokines PF4 or anti-PF4/PF4 for 10 min at room temperature and was added to the wells and incubated in HEPES-Tyrodes buffer with 1 mM CaCl2 for 1 h at room temperature. After unbound αIIbβ3 or αvβ3 was removed by rinsing the wells with binding buffer, bound αIIbβ3 or αvβ3 was measured using anti-integrin B3 mAb (AV-10) followed by HRP-conjugated goat anti-mouse IgG and peroxidase substrates.

soluble integrin αIIbβ3 [6] = biological target: T2, soluble integrin αIIbβ3; experiment: ELISA-type integrin activation assay, soluble αIIbβ3 binding to immobilized γC390-411; assay type: biochemical; settings: for ability of PF4 mutant to mediate RTO/PF4-induced αIIbβ3 activation: PF4 mutant in complex with anti-PF4 RTO, 1 mM Ca2+
Procedure: FIG. 3. […] FIG. 3a. Anti-PF4 (RTO) markedly enhances PF4-induced activation of soluble αIIbβ3 in 1 mM Ca^2+ in ELISA-type activation assays in a dose-dependent manner at physiological concentrations of PF4 (below 1 μg/ml). The fibrinogen fragments γC390-411 (a specific ligand for αIIbβ3) was immobilized to wells of 96-well microtiter plate. […] Anti-PF4 (RTO or KKO, 10 μg/ml) were added (without heparin). After washing, bound integrins were quantified using anti-β3 (mAb AV10) and HRP-conjugated anti-mouse IgG. Mouse IgG (10 μg/ml) and no antibody were used as negative controls. Data are shown as means+/−SD in triplicate experiments. FIG. 3b. […] Commercial PF4 was used instead of our own PF4 preparation. Activation assays were performed as described in a. […] FIG. 3c. Point mutations in the predicted integrin-binding site (site 2) of PF4 suppressed activation of αIIbβ3 by the anti-PF4/PF4 complex. […] FIG. 3d. The R20E/R22E/K46E/R49E mutant suppressed integrin activation by the anti-PF4/PF4 complex. WT PF4 ([…]) and excess PF4 mutant (5 or 10 μg/ml) were used.
as §3

T1 sequence (P06756 31-992 limits assumed): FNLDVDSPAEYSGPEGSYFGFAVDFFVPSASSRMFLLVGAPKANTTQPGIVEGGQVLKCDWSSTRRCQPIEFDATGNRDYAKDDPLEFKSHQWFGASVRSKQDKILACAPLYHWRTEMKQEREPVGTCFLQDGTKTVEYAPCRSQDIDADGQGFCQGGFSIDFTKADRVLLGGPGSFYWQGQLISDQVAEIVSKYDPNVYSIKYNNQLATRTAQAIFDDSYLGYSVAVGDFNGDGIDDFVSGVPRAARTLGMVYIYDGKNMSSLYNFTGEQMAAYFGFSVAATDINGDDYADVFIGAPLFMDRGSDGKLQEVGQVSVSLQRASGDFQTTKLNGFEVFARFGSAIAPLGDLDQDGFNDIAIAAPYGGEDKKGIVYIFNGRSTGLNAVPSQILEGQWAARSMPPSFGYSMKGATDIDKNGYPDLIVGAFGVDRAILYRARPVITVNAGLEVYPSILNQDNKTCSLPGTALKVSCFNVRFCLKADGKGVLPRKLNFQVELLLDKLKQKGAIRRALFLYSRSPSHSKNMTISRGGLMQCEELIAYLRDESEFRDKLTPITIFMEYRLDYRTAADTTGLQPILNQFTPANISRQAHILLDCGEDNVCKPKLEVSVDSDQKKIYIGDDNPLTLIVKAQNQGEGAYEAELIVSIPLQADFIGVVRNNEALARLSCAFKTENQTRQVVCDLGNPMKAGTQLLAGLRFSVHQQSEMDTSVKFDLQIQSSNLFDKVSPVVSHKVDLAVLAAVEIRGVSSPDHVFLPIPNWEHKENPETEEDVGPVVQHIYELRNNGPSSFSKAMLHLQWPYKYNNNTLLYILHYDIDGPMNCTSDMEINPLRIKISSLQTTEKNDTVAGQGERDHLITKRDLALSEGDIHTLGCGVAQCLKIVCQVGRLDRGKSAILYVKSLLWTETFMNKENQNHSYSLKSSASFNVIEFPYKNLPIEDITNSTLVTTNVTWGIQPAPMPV
T1 sequence (P05106 27-718 limits assumed): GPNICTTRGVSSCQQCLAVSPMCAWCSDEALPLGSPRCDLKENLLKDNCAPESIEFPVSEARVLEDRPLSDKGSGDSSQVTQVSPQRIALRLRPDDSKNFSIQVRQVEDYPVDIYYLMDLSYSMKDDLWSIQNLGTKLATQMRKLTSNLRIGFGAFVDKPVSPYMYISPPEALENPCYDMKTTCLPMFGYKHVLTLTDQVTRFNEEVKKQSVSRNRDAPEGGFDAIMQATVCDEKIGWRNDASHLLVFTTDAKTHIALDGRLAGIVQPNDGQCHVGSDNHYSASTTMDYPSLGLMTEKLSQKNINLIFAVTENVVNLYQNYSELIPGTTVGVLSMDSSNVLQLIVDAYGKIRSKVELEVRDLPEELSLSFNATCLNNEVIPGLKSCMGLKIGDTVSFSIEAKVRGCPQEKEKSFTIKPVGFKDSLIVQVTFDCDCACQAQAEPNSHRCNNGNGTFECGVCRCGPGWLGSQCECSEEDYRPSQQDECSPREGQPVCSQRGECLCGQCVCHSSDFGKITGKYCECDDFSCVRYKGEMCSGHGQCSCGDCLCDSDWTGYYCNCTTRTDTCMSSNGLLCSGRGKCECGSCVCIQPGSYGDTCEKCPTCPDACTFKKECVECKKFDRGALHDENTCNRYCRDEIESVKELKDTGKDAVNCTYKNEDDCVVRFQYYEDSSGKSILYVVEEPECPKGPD
T4 sequence (P06756 31-992, chain 1 of 2): as the sequence (P06756 31-992 limits assumed) above
T4 sequence (P05106 27-718, chain 2 of 2): as the sequence (P05106 27-718 limits assumed) above

Molecule: N=C(N)NCCCC[C@@H]1NC(=O)CCSSC[C@@H](C(N)=O)NC(=O)[C@@H]2CCCN2C(=O)[C@H](Cc2c[nH]c3ccccc23)NC(=O)[C@H](CC(=O)O)NC(=O)CNC1=O [eptifibatide] ([Mpa][hArg]GDWPC-NH2; disulfide 1-7)
- effect of integrin antagonists on PF4 binding to αIIbβ3 (soluble integrin αIIbβ3 [2]; PF4 coated at 50 μg/ml, mAb 7E3 10 μg/ml, eptifibatide 0.65 μg/ml, cyclic RGDfV 10 μM): weak inhibition

B2: R20E/R22E/K46E/R49E: PF4 (SEQ ID NO: 1) quadruple mutant defective in site 2 binding; dominant-negative antagonist (protein)
chain: EAEEDGDLQCLCVKTTSQVEPEHITSLEVIKAGPHCPTAQLIATLENGEKICLDLQAPLYKKIIKKLLES
modifications: Description ofsequence: PF4 sp|P02776|32-101
notes: dominant-negative antagonist
- ability of PF4 mutant to mediate RTO/PF4-induced αvβ3 activation (soluble integrin αvβ3 [5]): most effectively reduced
- suppression of αvβ3 activation by the RTO/PF4 complex (antagonist effect) (soluble integrin αvβ3 [5]; WT PF4 (0.5 μg/ml) and excess PF4 mutant (5 or 10 μg/ml), RTO): suppressed
- ability of PF4 mutant to mediate RTO/PF4-induced αIIbβ3 activation (soluble integrin αIIbβ3 [6]): most effectively reduced
- suppression of αIIbβ3 activation by the anti-PF4/PF4 complex (antagonist effect) (soluble integrin αIIbβ3 [6]; WT PF4 (0.5 g/ml) and excess PF4 mutant (5 or 10 μg/ml), RTO): suppressed

B4: R20E/R22E: PF4 (SEQ ID NO: 1) double mutant, Arg20 and Arg22 mutated to Glu (protein)
chain: EAEEDGDLQCLCVKTTSQVEPEHITSLEVIKAGPHCPTAQLIATLKNGRKICLDLQAPLYKKIIKKLLES
modifications: Description ofsequence: PF4 sp|P02776|32-101
- ability of PF4 mutant to mediate RTO/PF4-induced αvβ3 activation (soluble integrin αvβ3 [5]): reduced ability
- ability of PF4 mutant to mediate RTO/PF4-induced αIIbβ3 activation (soluble integrin αIIbβ3 [6]): reduced ability

Other lines, results leading:

- suppression of αvβ3 binding to immobilized PF4 (soluble integrin αvβ3 [1]): suppressed
- suppression of αIIbβ3 binding to immobilized PF4 (soluble integrin αIIbβ3 [2]; competitor 100 μg/ml, immobilized PF4 (12.5 g/ml)): suppressed
Molecule: ADAM15 disintegrin: disintegrin domain of ADAM15 fused to GST, known to bind integrins αIIbβ3 and αvβ3

- Kd [3]: < 1 µg/mL
- Kd [4]: < 1 µg/mL
B1: PF4 (platelet factor 4, chemokine CXCL4), preparation generated in the inventors' lab (ligand)
chain: EAEEDGDLQCLCVKTTSQVRPRHITSLEVIKAGPHCPTAQLIATLKNGRKICLDLQAPLYKKIIKKLLES
notes: Made in E. coli BL21 from pET28a as inclusion bodies, purified on Ni-NTA under denaturing conditions and renatured; also called WT PF4; wild-type PF4; not shown: Vector-derived N-terminal tag and leader of pET28a (His tag used for Ni-NTA purification, BamHI/EcoRI insert)

- ability of PF4 mutant to mediate RTO/PF4-induced αvβ3 activation (soluble integrin αvβ3 [5]): reduced ability
- ability of PF4 mutant to mediate RTO/PF4-induced αIIbβ3 activation (soluble integrin αIIbβ3 [6]): reduced ability
B3: K46E/R49E: PF4 (SEQ ID NO: 1) double mutant, Lys46 and Arg49 mutated to Glu (protein)
chain: EAEEDGDLQCLCVKTTSQVRPRHITSLEVIKAGPHCPTAQLIATLENGEKICLDLQAPLYKKIIKKLLES
modifications: Description ofsequence: PF4 sp|P02776|32-101
